From paper PMC10743661, “The Link of mRNA and rRNA Transcription by PUF60/FIR through TFIIH/P62 as a Novel Therapeutic Target for Cancer” (International Journal of Molecular Sciences, 2023)

What was measured:
[1] = target: T1, FUBP1-interacting repressor (FIR) (human, UniProt Q9UHX1-2 1-542); assay: ITC; first step of two-step fit, 30°C, pH 7.2
T1 chain: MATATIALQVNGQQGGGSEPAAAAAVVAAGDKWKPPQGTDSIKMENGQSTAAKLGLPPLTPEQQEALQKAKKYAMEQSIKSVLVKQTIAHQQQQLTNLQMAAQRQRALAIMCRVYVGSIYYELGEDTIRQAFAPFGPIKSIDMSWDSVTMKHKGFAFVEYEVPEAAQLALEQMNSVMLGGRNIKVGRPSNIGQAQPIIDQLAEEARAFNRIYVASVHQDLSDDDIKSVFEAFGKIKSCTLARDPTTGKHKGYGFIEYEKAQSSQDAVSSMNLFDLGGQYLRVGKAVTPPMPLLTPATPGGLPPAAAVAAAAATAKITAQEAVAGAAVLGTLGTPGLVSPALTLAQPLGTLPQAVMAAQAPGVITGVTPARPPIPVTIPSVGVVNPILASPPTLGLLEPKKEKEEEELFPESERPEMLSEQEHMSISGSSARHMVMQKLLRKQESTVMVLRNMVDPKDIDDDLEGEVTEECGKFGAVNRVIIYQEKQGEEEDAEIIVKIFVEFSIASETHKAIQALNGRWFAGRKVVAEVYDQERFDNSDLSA

[2] = target: T1, FUBP1-interacting repressor (FIR); assay: ITC; second step of two-step fit, 30°C, pH 7.2
[3] = target: T2, FUBP1-interacting repressor (FIR) (human, UniProt Q9UHX1-2 1-542); assay: ITC; MicroCal VP-ITC, 30 °C, 50 mM phosphate buffer pH 7.2; cell: 4 μM wild FIR or 14.5 μM FIR∆exon2; syringe: 44 or 145 μM TFIIH p62 PH domain; 25 injections of 10 μL; details: both partners purified
T2 construct: also called FIR wild; wild FIR
T2 sequence (looked up): T1 chain

B1: TFIIH p62 PH domain (domain or fragment, UniProt P32780 1-108, looked up)
chain: MATSSEEVLLIVKKVRQKKQDGALYLMAERIAWAPEGKDRFTISHMYADIKCQKISPEGKAKIQLQLVLHAGDTTNFHFSNESTAVKERDAVKDLLQQLLPKFKRKAN
notes: pleckstrin homology (PH) domain of the P62 subunit of transcription factor IIH; also called P62 of TFIIH; P62 subunit of TFIIH
Ka [1]: 1.9e+07 M⁻¹ | Ka [2]: 2.3e+06 M⁻¹ | Ka [3]: 2.34e+07 M⁻¹
